The test has as its target T1, Rpn8 (Saccharomyces cerevisiae proteasome lid subunit) (S. cerevisiae, UniProt Q08723 1-338).
T1 sequence (looked up): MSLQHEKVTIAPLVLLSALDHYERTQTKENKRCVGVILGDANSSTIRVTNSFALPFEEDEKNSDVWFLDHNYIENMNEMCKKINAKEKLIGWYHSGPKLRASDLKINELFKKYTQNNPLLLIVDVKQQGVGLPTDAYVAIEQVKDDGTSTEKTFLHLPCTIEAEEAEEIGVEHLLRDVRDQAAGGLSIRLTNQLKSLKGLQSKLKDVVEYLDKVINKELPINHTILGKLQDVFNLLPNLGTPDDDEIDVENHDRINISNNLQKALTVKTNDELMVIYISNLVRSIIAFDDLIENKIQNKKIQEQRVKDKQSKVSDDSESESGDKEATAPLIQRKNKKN
The experiment in a line: two-hybrid.

Data on one molecule can be found in publication doi:10.1101/2024.09.18.613619 (bioRxiv, 2024).

B1: Rpn11 (Saccharomyces cerevisiae proteasome lid subunit) (natural protein, S. cerevisiae, UniProt P43588 1-306, looked up)
chain: MERLQRLMMNSKVGSADTGRDDTKETVYISSIALLKMLKHGRAGVPMEVMGLMLGEFVDDYTVNVVDVFAMPQSGTGVSVEAVDDVFQAKMMDMLKQTGRDQMVVGWYHSHPGFGCWLSSVDVNTQKSFEQLNSRAVAVVVDPIQSVKGKVVIDAFRLIDTGALINNLEPRQTTSNTGLLNKANIQALIHGLNRHYYSLNIDYHKTAKETKMLMNLHKEQWQSGLKMYDYEEKEESNLAATKSMVKIAEQYSKRIEEEKELTEEELKTRYVGRQDPKKHLSETADETLENNIVSVLTAGVNSVAIK
Regarding B1, the “β-galactosidase activity relative to the GlRpn8-GlRpn11 pair” value is about 2 fold.
